B1: Protein P-30, P22069 (parent)
chain: QDWLTFQKKHITNTRDVDCDNIMSTNLFHCKDKNTFIYSRPEPVKAICKGIIASKNVLTTSEFYLSDCNVTSRPCKYKLKKSTNKFCVTCENQAPVHFVGVGSC

Variants of: B1
Details: Lithobates pipiens; pH 2; 25 °C; Thermal; DSC; MES 100 mM; reversible: yes; structure 1ONC; whole UniProt chain shown

Which results are given for QDWLTFQKKHITNTRDVDCDNILSTNLFHCKDKNTFIYSRPEPVKAICKGIIASKNVLTTSEFYLSDCNVTSRPCKYKLKKSTNKFCVTCENQAPVHFVGVGSC?
ddG of mutation (higher = less stable): 2.51 kcal/mol; unfolding free energy: 6.33 kcal/mol

Same assay, conditions: Lithobates pipiens; pH 2; Thermal; DSC; MES 100 mM; reversible: yes; structure 1ONC; whole UniProt chain shown

For QDWLTFQKKHITNTRDVDCDNILSTNLFHCKDKNTFIYSRPEPVKAICKGIIASKNVLTTSEFYLSDCNVTSRPCKYKLKKSTNKFCVTCENQAPVHFVGVGSC, which Tm is on record?
Its Tm is 62.2 °C.

What about the “change of melting temperature, mutant - wild type (higher = more stable)” value (“change of melting temperature, mutant” below) of the same variant?
Its value is -7.3 °C.

What about the “heat capacity change of unfolding” value of the same variant?
Its value is 1.24 kcal/mol/K.

And the “unfolding enthalpy (calorimetric)” value?
The value was 84.8 kcal/mol.

And the “unfolding enthalpy (van 't Hoff)” value?
Its value is 88.4 kcal/mol.

Same assay, conditions: Lithobates pipiens; pH 2.5; 25 °C; Thermal; DSC; MES 100 mM; reversible: yes; structure 1ONC; whole UniProt chain shown

For QDWLTFQKKHITNTRDVDCDNILSTNLFHCKDKNTFIYSRPEPVKAICKGIIASKNVLTTSEFYLSDCNVTSRPCKYKLKKSTNKFCVTCENQAPVHFVGVGSC, which “ddG of mutation (higher = less stable)” value is on record?
The value was 2.29 kcal/mol.

What about the unfolding free energy of the same variant?
Its unfolding free energy is 7.24 kcal/mol.

Same assay, conditions: Lithobates pipiens; pH 2.5; Thermal; DSC; MES 100 mM; reversible: yes; structure 1ONC; whole UniProt chain shown

What does the source list for QDWLTFQKKHITNTRDVDCDNILSTNLFHCKDKNTFIYSRPEPVKAICKGIIASKNVLTTSEFYLSDCNVTSRPCKYKLKKSTNKFCVTCENQAPVHFVGVGSC?
Tm: 65.8 °C; change of melting temperature, mutant - wild type (higher = more stable): -6.8 °C; heat capacity change of unfolding: 1.51 kcal/mol/K; unfolding enthalpy (calorimetric): 90.8 kcal/mol; unfolding enthalpy (van 't Hoff): 87.3 kcal/mol

Same assay, conditions: Lithobates pipiens; pH 3; 25 °C; Thermal; DSC; MES 100 mM; reversible: yes; structure 1ONC; whole UniProt chain shown

With QDWLTFQKKHITNTRDVDCDNILSTNLFHCKDKNTFIYSRPEPVKAICKGIIASKNVLTTSEFYLSDCNVTSRPCKYKLKKSTNKFCVTCENQAPVHFVGVGSC as the variant, how does the “ddG of mutation (higher = less stable)” value read?
Its value is 2.77 kcal/mol.

And the unfolding free energy?
The unfolding free energy was 8.03 kcal/mol.

Same assay, conditions: Lithobates pipiens; pH 3; Thermal; DSC; MES 100 mM; reversible: yes; structure 1ONC; whole UniProt chain shown

What does the source list for QDWLTFQKKHITNTRDVDCDNILSTNLFHCKDKNTFIYSRPEPVKAICKGIIASKNVLTTSEFYLSDCNVTSRPCKYKLKKSTNKFCVTCENQAPVHFVGVGSC?
Tm: 68.9 °C; change of melting temperature, mutant - wild type (higher = more stable): -7.6 °C; heat capacity change of unfolding: 1.39 kcal/mol/K; unfolding enthalpy (calorimetric): 95.6 kcal/mol; unfolding enthalpy (van 't Hoff): 94.7 kcal/mol

Same assay, conditions: Lithobates pipiens; pH 3.5; 25 °C; Thermal; DSC; MES 100 mM; reversible: yes; structure 1ONC; whole UniProt chain shown

For QDWLTFQKKHITNTRDVDCDNILSTNLFHCKDKNTFIYSRPEPVKAICKGIIASKNVLTTSEFYLSDCNVTSRPCKYKLKKSTNKFCVTCENQAPVHFVGVGSC, which “ddG of mutation (higher = less stable)” value is on record?
Its value is 2.89 kcal/mol.

And the unfolding free energy?
The unfolding free energy was 9.32 kcal/mol.

Same assay, conditions: Lithobates pipiens; pH 3.5; Thermal; DSC; MES 100 mM; reversible: yes; structure 1ONC; whole UniProt chain shown

What does the source list for QDWLTFQKKHITNTRDVDCDNILSTNLFHCKDKNTFIYSRPEPVKAICKGIIASKNVLTTSEFYLSDCNVTSRPCKYKLKKSTNKFCVTCENQAPVHFVGVGSC?
Tm: 74.7 °C; change of melting temperature, mutant - wild type (higher = more stable): -6.9 °C; heat capacity change of unfolding: 1.48 kcal/mol/K; unfolding enthalpy (calorimetric): 103 kcal/mol; unfolding enthalpy (van 't Hoff): 99.8 kcal/mol

Same assay, conditions: Lithobates pipiens; pH 4; Thermal; DSC; MES 100 mM; reversible: yes; structure 1ONC; whole UniProt chain shown

For QDWLTFQKKHITNTRDVDCDNILSTNLFHCKDKNTFIYSRPEPVKAICKGIIASKNVLTTSEFYLSDCNVTSRPCKYKLKKSTNKFCVTCENQAPVHFVGVGSC, which Tm is on record?
The Tm was 80.7 °C.

And the “change of melting temperature, mutant” value?
Its value is -6.1 °C.

And the “heat capacity change of unfolding” value?
The value was 1.34 kcal/mol/K.

And the “unfolding enthalpy (calorimetric)” value?
The value was 112 kcal/mol.

And the “unfolding enthalpy (van 't Hoff)” value?
Its value is 115 kcal/mol.

Same assay, conditions: Lithobates pipiens; pH 5; 25 °C; Thermal; DSC; MES 100 mM; reversible: yes; structure 1ONC; whole UniProt chain shown

For QDWLTFQKKHITNTRDVDCDNILSTNLFHCKDKNTFIYSRPEPVKAICKGIIASKNVLTTSEFYLSDCNVTSRPCKYKLKKSTNKFCVTCENQAPVHFVGVGSC, which “ddG of mutation (higher = less stable)” value is on record?
Its value is 2.65 kcal/mol.

What about the unfolding free energy of the same variant?
Its unfolding free energy is 11.5 kcal/mol.

Same assay, conditions: Lithobates pipiens; pH 5; Thermal; DSC; MES 100 mM; reversible: yes; structure 1ONC; whole UniProt chain shown

With QDWLTFQKKHITNTRDVDCDNILSTNLFHCKDKNTFIYSRPEPVKAICKGIIASKNVLTTSEFYLSDCNVTSRPCKYKLKKSTNKFCVTCENQAPVHFVGVGSC as the variant, how does the Tm read?
Its Tm is 82.3 °C.

And the “change of melting temperature, mutant” value?
The value was -6 °C.

And the “heat capacity change of unfolding” value?
The value was 1.43 kcal/mol/K.

And the “unfolding enthalpy (calorimetric)” value?
The value was 115 kcal/mol.

What about the “unfolding enthalpy (van 't Hoff)” value of the same variant?
The value was 117 kcal/mol.

Same assay, conditions: Lithobates pipiens; pH 6; 25 °C; GdnHCl; CD; MES 100 mM; reversible: yes; structure 1ONC; whole UniProt chain shown

What does the source list for QDWLTFQKKHITNTRDVDCDNILSTNLFHCKDKNTFIYSRPEPVKAICKGIIASKNVLTTSEFYLSDCNVTSRPCKYKLKKSTNKFCVTCENQAPVHFVGVGSC?
ddG of mutation (higher = less stable): 3.06 kcal/mol; denaturant m value: 3.25 kcal/mol/M; denaturant midpoint (higher = more stable): 3.4 M; unfolding free energy: 11 kcal/mol

Same assay, conditions: Lithobates pipiens; pH 6; 25 °C; GdnHCl; Fluorescence; MES 100 mM; reversible: yes; structure 1ONC; whole UniProt chain shown

For QDWLTFQKKHITNTRDVDCDNILSTNLFHCKDKNTFIYSRPEPVKAICKGIIASKNVLTTSEFYLSDCNVTSRPCKYKLKKSTNKFCVTCENQAPVHFVGVGSC, which “ddG of mutation (higher = less stable)” value is on record?
The value was 2.63 kcal/mol.

What about the denaturant m value of the same variant?
The denaturant m value was 3.3 kcal/mol/M.

And the “denaturant midpoint (higher = more stable)” value?
Its value is 3.4 M.

What about the unfolding free energy of the same variant?
Its unfolding free energy is 11.2 kcal/mol.

Same assay, conditions: Lithobates pipiens; pH 6; 25 °C; Thermal; DSC; MES 100 mM; reversible: yes; structure 1ONC; whole UniProt chain shown

For QDWLTFQKKHITNTRDVDCDNILSTNLFHCKDKNTFIYSRPEPVKAICKGIIASKNVLTTSEFYLSDCNVTSRPCKYKLKKSTNKFCVTCENQAPVHFVGVGSC, which “ddG of mutation (higher = less stable)” value is on record?
Its value is 2.65 kcal/mol.

What about the unfolding free energy of the same variant?
The unfolding free energy was 11.5 kcal/mol.

Same assay, conditions: Lithobates pipiens; pH 6; Thermal; DSC; MES 100 mM; reversible: yes; structure 1ONC; whole UniProt chain shown

For QDWLTFQKKHITNTRDVDCDNILSTNLFHCKDKNTFIYSRPEPVKAICKGIIASKNVLTTSEFYLSDCNVTSRPCKYKLKKSTNKFCVTCENQAPVHFVGVGSC, which Tm is on record?
The Tm was 82.8 °C.

What about the “change of melting temperature, mutant” value of the same variant?
Its value is -5.9 °C.

What about the “heat capacity change of unfolding” value of the same variant?
Its value is 1.29 kcal/mol/K.

What about the “unfolding enthalpy (calorimetric)” value of the same variant?
Its value is 115 kcal/mol.

And the “unfolding enthalpy (van 't Hoff)” value?
The value was 112 kcal/mol.

Same assay, conditions: Lithobates pipiens; pH 7; 25 °C; Thermal; DSC; MES 100 mM; reversible: yes; structure 1ONC; whole UniProt chain shown

For QDWLTFQKKHITNTRDVDCDNILSTNLFHCKDKNTFIYSRPEPVKAICKGIIASKNVLTTSEFYLSDCNVTSRPCKYKLKKSTNKFCVTCENQAPVHFVGVGSC, which “ddG of mutation (higher = less stable)” value is on record?
The value was 2.22 kcal/mol.

What about the unfolding free energy of the same variant?
The unfolding free energy was 11.5 kcal/mol.

Same assay, conditions: Lithobates pipiens; pH 7; Thermal; DSC; MES 100 mM; reversible: yes; structure 1ONC; whole UniProt chain shown

What does the source list for QDWLTFQKKHITNTRDVDCDNILSTNLFHCKDKNTFIYSRPEPVKAICKGIIASKNVLTTSEFYLSDCNVTSRPCKYKLKKSTNKFCVTCENQAPVHFVGVGSC?
Tm: 82 °C; change of melting temperature, mutant - wild type (higher = more stable): -5.8 °C; heat capacity change of unfolding: 1.46 kcal/mol/K; unfolding enthalpy (calorimetric): 115 kcal/mol; unfolding enthalpy (van 't Hoff): 118 kcal/mol

Same assay, conditions: Lithobates pipiens; pH 8; 25 °C; Thermal; DSC; MES 100 mM; reversible: yes; structure 1ONC; whole UniProt chain shown

With QDWLTFQKKHITNTRDVDCDNILSTNLFHCKDKNTFIYSRPEPVKAICKGIIASKNVLTTSEFYLSDCNVTSRPCKYKLKKSTNKFCVTCENQAPVHFVGVGSC as the variant, how does the “ddG of mutation (higher = less stable)” value read?
The value was 2.39 kcal/mol.

What about the unfolding free energy of the same variant?
The unfolding free energy was 10.6 kcal/mol.

Same assay, conditions: Lithobates pipiens; pH 8; Thermal; DSC; MES 100 mM; reversible: yes; structure 1ONC; whole UniProt chain shown

With QDWLTFQKKHITNTRDVDCDNILSTNLFHCKDKNTFIYSRPEPVKAICKGIIASKNVLTTSEFYLSDCNVTSRPCKYKLKKSTNKFCVTCENQAPVHFVGVGSC as the variant, how does the Tm read?
Its Tm is 79.1 °C.

What about the “change of melting temperature, mutant” value of the same variant?
The value was -6.3 °C.

What about the “heat capacity change of unfolding” value of the same variant?
The value was 1.36 kcal/mol/K.

And the “unfolding enthalpy (calorimetric)” value?
The value was 110 kcal/mol.

What about the “unfolding enthalpy (van 't Hoff)” value of the same variant?
Its value is 109 kcal/mol.
